This note sets out measurements from publication PMC10627809, “Histones with an unconventional DNA-binding mode in vitro are major chromatin constituents in the bacterium Bdellovibrio bacteriovorus” (Nature Microbiology, 2023).

One series deals with T1, Bd0055 (UniProt Q6MRM1 1-64).
T1 sequence: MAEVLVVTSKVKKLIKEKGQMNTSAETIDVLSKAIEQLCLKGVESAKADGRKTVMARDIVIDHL
Description: X-ray crystallography; 1 dimer per 2.5 bp; straight DNA; asymmetric unit has one dimer with 2 nt + 3 nt; FP/FRET: 10 nM DNA, 10 mM NaCl, 1 mM EDTA, 50 mM HEPES pH 6, r.t.; EMSA: 1 µM DNA, 10 mM NaCl, 1 mM EDTA, 50 mM HEPES pH 7.5, r.t., 10% native PAGE 0.2x TBE. To be noted: protein: recombinant; chain copies: 2; blunt. Background: A gel shift assay detects complexes by their altered migration in electrophoresis.

Series [1] deals with the molecule itself. Kind of series: crystal structure; apo Bd0055; hanging drop, 3.2 M (NH4)2SO4, 100 mM BICINE pH 9; 1.8 Å.

B1: 35 bp crystallization DNA (dsDNA)
DNA 1: TCTTGCACTAAGAGCTACTGGAGTGCGTCAGATGT
DNA 2: ACATCTGACGCACTCCAGTAGCTCTTAGTGCAAGA
As to B1, the binding result with Bd0055 is “binds”.

B2: Bd0055, B. bacteriovorus histone (natural protein, Bdellovibrio bacteriovorus HD100, UniProt Q6MRM1 1-64, looked up)
chain: MAEVLVVTSKVKKLIKEKGQMNTSAETIDVLSKAIEQLCLKGVESAKADGRKTVMARDIVIDHL
notes: Bd0055, singlet histone-fold protein of Bdellovibrio bacteriovorus HD100; open reading frame codon optimized for E. coli, cloned into a pET vector; No tag is named; purified by cation exchange, heparin and size exclusion; Histone-fold homodimer in both crystal structures; also called wild type Bd0055; bacterial histone Bd0055; source: E. coli, purified (SP HP, Heparin HP, S75)
As to B2, the binding result in series [1] is on record as “binds”.
